Source: patent US20180119149
Read-outs that look alike come from different tables or passages of the source.

Assays:
CTLA-4 = CTLA-4 (UniProt P16410); details: bulk Kd, bead-based fluorescence
[1] = target: HER2 (ErbB2) (Homo sapiens) (UniProt P04626)
[2] = target: HER2 (ErbB2) (Homo sapiens) (UniProt P04626); details: bulk Kd, with formaldehyde cross-linking; about 5-fold higher Kd without
EGFR = EGFR (UniProt P00533); details: HER2 about 4 times higher
ErbB3 (HER3) = ErbB3 (HER3) (UniProt P21860); details: HER2 about 4 times higher
ErbB3 (HER3), sequence (P21860 20-643): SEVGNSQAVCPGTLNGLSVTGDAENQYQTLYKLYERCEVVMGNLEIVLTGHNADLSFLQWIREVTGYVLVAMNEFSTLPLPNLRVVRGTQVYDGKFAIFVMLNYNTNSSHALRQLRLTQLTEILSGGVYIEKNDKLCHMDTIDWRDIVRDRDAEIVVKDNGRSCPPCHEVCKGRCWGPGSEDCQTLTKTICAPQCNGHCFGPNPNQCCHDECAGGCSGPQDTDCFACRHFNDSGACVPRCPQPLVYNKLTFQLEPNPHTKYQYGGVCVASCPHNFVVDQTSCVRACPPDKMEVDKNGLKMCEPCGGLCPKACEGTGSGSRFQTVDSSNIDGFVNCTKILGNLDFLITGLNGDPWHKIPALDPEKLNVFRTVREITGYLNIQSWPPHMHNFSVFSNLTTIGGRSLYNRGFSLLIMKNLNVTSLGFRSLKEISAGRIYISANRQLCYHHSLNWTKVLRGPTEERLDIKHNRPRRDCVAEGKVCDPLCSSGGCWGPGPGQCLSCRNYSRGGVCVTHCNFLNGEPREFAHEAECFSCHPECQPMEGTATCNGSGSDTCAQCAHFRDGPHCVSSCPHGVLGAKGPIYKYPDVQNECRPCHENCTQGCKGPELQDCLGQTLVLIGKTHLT

ErbB4 (HER4) = target: T1, ErbB4 (HER4) (UniProt Q15303); details: HER2 about 4 times higher
T1 sequence: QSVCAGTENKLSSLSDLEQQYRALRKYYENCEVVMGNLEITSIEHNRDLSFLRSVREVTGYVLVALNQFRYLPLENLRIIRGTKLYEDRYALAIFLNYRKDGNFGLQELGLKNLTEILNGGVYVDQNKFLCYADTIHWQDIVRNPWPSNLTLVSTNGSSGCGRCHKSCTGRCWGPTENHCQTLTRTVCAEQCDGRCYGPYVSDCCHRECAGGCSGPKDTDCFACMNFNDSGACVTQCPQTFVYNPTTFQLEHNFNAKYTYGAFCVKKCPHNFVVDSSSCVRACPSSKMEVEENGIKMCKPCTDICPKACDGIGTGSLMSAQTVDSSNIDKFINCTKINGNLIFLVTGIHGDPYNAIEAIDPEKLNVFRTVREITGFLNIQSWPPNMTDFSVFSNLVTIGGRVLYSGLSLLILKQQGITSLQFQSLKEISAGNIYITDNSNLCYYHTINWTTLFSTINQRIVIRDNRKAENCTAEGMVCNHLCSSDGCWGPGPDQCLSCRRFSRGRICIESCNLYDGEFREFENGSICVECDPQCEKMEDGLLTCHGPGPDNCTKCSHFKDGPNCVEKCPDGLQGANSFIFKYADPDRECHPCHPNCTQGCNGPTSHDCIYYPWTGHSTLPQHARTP

IgE (Homo sapiens) = details: bulk Kd, bead-based fluorescence
PD-L1 = PD-L1 (UniProt Q9NZQ7); details: bulk Kd, bead-based fluorescence
PD-L1, sequence (Q9NZQ7 19-238): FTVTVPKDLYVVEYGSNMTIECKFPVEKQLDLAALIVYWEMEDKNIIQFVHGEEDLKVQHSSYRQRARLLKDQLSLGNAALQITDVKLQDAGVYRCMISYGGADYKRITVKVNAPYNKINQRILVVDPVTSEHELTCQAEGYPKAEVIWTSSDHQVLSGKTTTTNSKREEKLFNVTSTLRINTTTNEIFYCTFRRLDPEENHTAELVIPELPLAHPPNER

PDGF-BB (Homo sapiens) [3] = target: PDGF-BB (Homo sapiens) (UniProt P01127); details: bulk Kd, bead-based fluorescence
PDGF-BB (Homo sapiens), sequence (P01127 82-190): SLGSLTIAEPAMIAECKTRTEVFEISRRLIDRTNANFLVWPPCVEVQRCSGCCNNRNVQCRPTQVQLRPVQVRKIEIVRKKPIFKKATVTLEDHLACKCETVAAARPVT

ubiquitin = ubiquitin (UniProt P0CG48); details: bulk Kd, bead-based fluorescence
PDGF-BB (Homo sapiens) [4] = target: PDGF-BB (Homo sapiens) (UniProt P01127); details: unselected library on PDGF-BB beads, with formaldehyde cross-linking

CTLA-4, sequence (P16410 36-161): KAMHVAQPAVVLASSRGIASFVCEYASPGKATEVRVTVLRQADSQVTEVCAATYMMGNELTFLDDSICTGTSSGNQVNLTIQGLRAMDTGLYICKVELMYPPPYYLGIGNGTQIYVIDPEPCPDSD

Sequence: AGCAGCACAGAGGTCAGATGNNNNNNNNNNNNNNNNNNNNNNNNNNNNNNNNNNNNNNNNCCTATGCGTGCTACCGTGAA [CTLA-4 round 3 pool]
- Kd (CTLA-4): 10.4 nM

Sequence: AGCAGCACAGAGGTCAGATGNNNNNNNNNNNNNNNNNNNNNNNNNNNNNNNNNNNNNNNNCCTATGCGTGCTACCGTGAA [HER2 round 1 pool]
- Kd ([1]; bulk Kd, with formaldehyde cross-linking): 22.1 nM

Sequence: AGCAGCACAGAGGTCAGATGNNNNNNNNNNNNNNNNNNNNNNNNNNNNNNNNNNNNNNNNCCTATGCGTGCTACCGTGAA [HER2 round 3 pool]
- Kd [2]: 6.8 nM
- binding signal (fraction of HER2 signal) (EGFR): 0.25
- binding signal (fraction of HER2 signal) (ErbB3 (HER3)): 0.25
- binding signal (fraction of HER2 signal) (ErbB4 (HER4)): 0.25

Sequence: AGCAGCACAGAGGTCAGATGNNNNNNNNNNNNNNNNNNNNNNNNNNNNNNNNNNNNNNNNCCTATGCGTGCTACCGTGAA [IgE round 3 pool]
- Kd (IgE (Homo sapiens)): 8.4 nM

Sequence: AGCAGCACAGAGGTCAGATGNNNNNNNNNNNNNNNNNNNNNNNNNNNNNNNNNNNNNNNNCCTATGCGTGCTACCGTGAA [PD-L1 round 3 pool]
- Kd (PD-L1): 15.5 nM

Sequence: AGCAGCACAGAGGTCAGATGNNNNNNNNNNNNNNNNNNNNNNNNNNNNNNNNNNNNNNNNCCTATGCGTGCTACCGTGAA [PDGF-BB round 3 pool]
- Kd (PDGF-BB (Homo sapiens) [3]): 1.9 nM

Sequence: AGCAGCACAGAGGTCAGATGNNNNNNNNNNNNNNNNNNNNNNNNNNNNNNNNNNNNNNNNCCTATGCGTGCTACCGTGAA [ubiquitin round 3 pool]
- Kd (ubiquitin): 11.9 nM

Sequence: AGCAGCACAGAGGTCAGATGNNNNNNNNNNNNNNNNNNNNNNNNNNNNNNNNNNNNNNNNCCTATGCGTGCTACCGTGAA [unselected ssDNA library (N40)]
- binding signal (PDGF-BB (Homo sapiens) [4]): < 2 % bound
- Kd ([1]; no obvious binding): > 1000 nM
